Experimental data as given in the supplement of paper PMC10567573.

B1: ADAMTS4 (parent)
chain: HVDPEEPWSPCSARFITDFLDNGY
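Also: lentivirally expressed fusions sorted by FACS into six bins by GFP to DsRed ratio, PSI derived from sequencing read proportions per bin multiplied by bin number.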

Variants of: B1
Experiment: protein stability index of a GFP-peptide fusion (GPS, HEK-293T) (PSI 1-6); higher = more stable
Settings: c terminus: a fixed tail appended
In the case of HVDPEEPWSPCSARFITDFLQNGY [D21Q], the protein stability index is reported as 2.21. Variant HVDPEEPWSPCSARFITDFLGNGY [D21G] has a protein stability index of 1.76. Variant HVDPEEPWSPCSARFITDFLNNGY [D21N] has a protein stability index of 1.84. HVDPEEPWSPCSARFITDFLRNGY [D21R] gave a protein stability index of 1.87. For HVDPEEPWSPCSARFITDFLENGY [D21E], the protein stability index was 1.71. Variant HVDPEEPWSPCSARFITDFLHNGY [D21H] has a protein stability index of 1.43. HVDPEEPWSPCSARFITDFLMNGY [D21M] showed a protein stability index of 1.77. Work on HVDPEEPWSPCSARFITDFLPNGY [D21P] yielded a protein stability index of 1.96. For HVDPEEPWSPCSARFITDFLANGY [D21A], the protein stability index was 1.35. HVDPEEPWSPCSARFITDFLKNGY [D21K] showed a protein stability index of 1.88. Variant HVDPEEPWSPCSARFITDFLINGY [D21I] has a protein stability index of 2.69. For HVDPEEPWSPCSARFITDFLFNGY [D21F], the protein stability index was 2.12. In the case of HVDPEEPWSPCSARFITDFLLNGY [D21L], the protein stability index is reported as 1.6. HVDPEEPWSPCSARFITDFLCNGY [D21C] gave a protein stability index of 1.95. HVDPEEPWSPCSARPITDFLDNGY [F15P] showed a protein stability index of 2.08. HVDPEEPWSPCSARMITDFLDNGY [F15M] showed a protein stability index of 1.91. For HVDPEEPWSPCSARLITDFLDNGY [F15L], the protein stability index was 1.96. HVDPEEPWSPCSARIITDFLDNGY [F15I] gave a protein stability index of 1.71. Work on HVDPEEPWSPCSARWITDFLDNGY [F15W] yielded a protein stability index of 1.64. In the case of HVDPEEPWSPCSARHITDFLDNGY [F15H], the protein stability index is reported as 1.98. HVDPEEPWSPCSARRITDFLDNGY [F15R] showed a protein stability index of 2.25. For HVDPEEPWSPCSARTITDFLDNGY [F15T], the protein stability index was 1.64. HVDPEEPWSPCSAREITDFLDNGY [F15E] showed a protein stability index of 2.65. With HVDPEEPWSPCSARVITDFLDNGY [F15V] the protein stability index was 1.91. With HVDPEEPWSPCSARYITDFLDNGY [F15Y] the protein stability index was 2.01. Variant HVDPEEPWSPCSARDITDFLDNGY [F15D] has a protein stability index of 2.47. For HVDPEEPWSPCSARCITDFLDNGY [F15C], the protein stability index was 1.97. For HVDPEEPWSPCSARAITDFLDNGY [F15A], the protein stability index was 1.94. With HVDPEEPWSPCSARQITDFLDNGY [F15Q] the protein stability index was 1.77. In the case of HVDPEEPWSPCSARSITDFLDNGY [F15S], the protein stability index is reported as 1.88. Variant HVDPEEPWSPCSARKITDFLDNGY [F15K] has a protein stability index of 2.07. In the case of HVDPEEPWSPCSARGITDFLDNGY [F15G], the protein stability index is reported as 2.71. Variant HVDPEEPWSPCSARNITDFLDNGY [F15N] has a protein stability index of 2.04. Work on HVDPEEPWSPCSGRFITDFLDNGY [A13G] yielded a protein stability index of 1.5. Variant HVDPEEPWSPCSHRFITDFLDNGY [A13H] has a protein stability index of 1.85. In the case of HVDPEEPWSPCSVRFITDFLDNGY [A13V], the protein stability index is reported as 2.54. For HVDPEEPWSPCSNRFITDFLDNGY [A13N], the protein stability index was 2.33. HVDPEEPWSPCSMRFITDFLDNGY [A13M] gave a protein stability index of 2.18. With HVDPEEPWSPCSFRFITDFLDNGY [A13F] the protein stability index was 1.92. HVDPEEPWSPCSIRFITDFLDNGY [A13I] gave a protein stability index of 2.19. Work on HVDPEEPWSPCSTRFITDFLDNGY [A13T] yielded a protein stability index of 1.79. With HVDPEEPWSPCSYRFITDFLDNGY [A13Y] the protein stability index was 1.67. For HVDPEEPWSPCSERFITDFLDNGY [A13E], the protein stability index was 2.1. HVDPEEPWSPCSDRFITDFLDNGY [A13D] showed a protein stability index of 2.35. For HVDPEEPWSPCSCRFITDFLDNGY [A13C], the protein stability index was 2.54. HVDPEEPWSPCSQRFITDFLDNGY [A13Q] showed a protein stability index of 1.97. With HVDPEEPWSPCSKRFITDFLDNGY [A13K] the protein stability index was 2.08. HVDPEEPWSPCSRRFITDFLDNGY [A13R] showed a protein stability index of 1.87. HVDPEEPWSPCSLRFITDFLDNGY [A13L] gave a protein stability index of 1.88. Variant HVDPEEPWSPCSSRFITDFLDNGY [A13S] has a protein stability index of 1.89. Variant HVDPEEPWSPCSPRFITDFLDNGY [A13P] has a protein stability index of 1.89. HVDPEEPWSPCSWRFITDFLDNGY [A13W] gave a protein stability index of 1.95. Work on HVDPEEPWSPCSARFITDTLDNGY [F19T] yielded a protein stability index of 2.02. HVDPEEPWSPCSARFITDKLDNGY [F19K] showed a protein stability index of 2.16. HVDPEEPWSPCSARFITDCLDNGY [F19C] showed a protein stability index of 1.5. Work on HVDPEEPWSPCSARFITDQLDNGY [F19Q] yielded a protein stability index of 2.21. HVDPEEPWSPCSARFITDRLDNGY [F19R] gave a protein stability index of 1.65. Variant HVDPEEPWSPCSARFITDYLDNGY [F19Y] has a protein stability index of 1.58. In the case of HVDPEEPWSPCSARFITDVLDNGY [F19V], the protein stability index is reported as 1.78. In the case of HVDPEEPWSPCSARFITDILDNGY [F19I], the protein stability index is reported as 1.8. HVDPEEPWSPCSARFITDMLDNGY [F19M] showed a protein stability index of 1.89. In the case of HVDPEEPWSPCSARFITDSLDNGY [F19S], the protein stability index is reported as 2.17. Variant HVDPEEPWSPCSARFITDELDNGY [F19E] has a protein stability index of 1.96. HVDPEEPWSPCSARFITDNLDNGY [F19N] showed a protein stability index of 2.05. With HVDPEEPWSPCSARFITDGLDNGY [F19G] the protein stability index was 2.06. Variant HVDPEEPWSPCSARFITDLLDNGY [F19L] has a protein stability index of 1.64. With HVDPEEPWSPCSARFITDALDNGY [F19A] the protein stability index was 1.86. In the case of HVDPEEPWSPCSARFITDWLDNGY [F19W], the protein stability index is reported as 1.93. For HVDPEEPWSPCSARFITDPLDNGY [F19P], the protein stability index was 3. HVDPEEPWSPCSARFITDHLDNGY [F19H] gave a protein stability index of 2.29. In the case of HVDPEEPWSPCSARFITDDLDNGY [F19D], the protein stability index is reported as 2.54. In the case of HVDPEEPWSPCSARFYTDFLDNGY [I16Y], the protein stability index is reported as 1.89. In the case of HVDPEEPWSPCSARFMTDFLDNGY [I16M], the protein stability index is reported as 1.69. For HVDPEEPWSPCSARFPTDFLDNGY [I16P], the protein stability index was 1.81. With HVDPEEPWSPCSARFATDFLDNGY [I16A] the protein stability index was 2.13. Work on HVDPEEPWSPCSARFSTDFLDNGY [I16S] yielded a protein stability index of 1.98. For HVDPEEPWSPCSARFKTDFLDNGY [I16K], the protein stability index was 1.73. With HVDPEEPWSPCSARFTTDFLDNGY [I16T] the protein stability index was 1.74. For HVDPEEPWSPCSARFWTDFLDNGY [I16W], the protein stability index was 1.55. Variant HVDPEEPWSPCSARFCTDFLDNGY [I16C] has a protein stability index of 1.59. Variant HVDPEEPWSPCSARFHTDFLDNGY [I16H] has a protein stability index of 1.72. Variant HVDPEEPWSPCSARFFTDFLDNGY [I16F] has a protein stability index of 1.63. HVDPEEPWSPCSARFDTDFLDNGY [I16D] gave a protein stability index of 1.94. HVDPEEPWSPCSARFNTDFLDNGY [I16N] gave a protein stability index of 2.19. Variant HVDPEEPWSPCSARFLTDFLDNGY [I16L] has a protein stability index of 1.67. For HVDPEEPWSPCSARFVTDFLDNGY [I16V], the protein stability index was 1.97. Variant HVDPEEPWSPCSARFGTDFLDNGY [I16G] has a protein stability index of 2.27. For HVDPEEPWSPCSARFETDFLDNGY [I16E], the protein stability index was 2.33. HVDPEEPWSPCSARFQTDFLDNGY [I16Q] showed a protein stability index of 2.07. For HVDPEEPWSPCSARFRTDFLDNGY [I16R], the protein stability index was 2.84. HVDPEEPWSPCSARFITIFLDNGY [D18I] gave a protein stability index of 2.73. HVDPEEPWSPCSARFITFFLDNGY [D18F] showed a protein stability index of 1.6. Variant HVDPEEPWSPCSARFITQFLDNGY [D18Q] has a protein stability index of 1.67. With HVDPEEPWSPCSARFITKFLDNGY [D18K] the protein stability index was 2.02.
